According to article PMC9554601:

Biological target: stabilized SARS-CoV-2 spike protein trimer (S-6P) (SARS-CoV-2) (UniProt P0DTC2)
Test: cryo-EM structure

**Q.** Which stoichiometry N does the source give for “stabilized SARS-CoV-2 spike protein trimer (S-6P) (from UniProt P0DTC2)” here?
**A.** 3
